B1: SRP1848-F04 (antibody, V domains shown)
VH: EVQLVESGGGLVQPGGSLRLSCAASGFNISNYSIHWVRQAPGKGLEWVGEIYPIDGITDYADSVKGRFTISADTSKNTAYLQMNSLRAEDTAVYYCARGSWFWRSGYGYYLDYWGQGTLVTVSS
VL: not shown
B2: SRP1848-B09 (antibody, V domains shown)
VH: EVQLVESGGGLVQPGGSLRLSCAAGGFNITNYYIHWVRQAPGKGLEWVGGITPVDGYTDYADRVKGRFTISADTSKNTAYLQMNSLRAEDTAVYYCARGAWSWRSGYGYYMDYWGQGTLVTVSS
VL: not shown
B3: SRP1848-A06 (antibody, V domains shown)
VH: EVQLVESGGGLVQPGGSLRLSCAASGFNIGNSYIHWVRQAPGKGLEWVGGITPIDGNTDYADSVKGRFTISADTSKNTAYLQMNSLRAEDTAVYYCARGAWSWRSGYGYYIDYWGQGTLVTVSS
VL: not shown
B4: SRP1848-B07 (antibody, V domains shown)
VH: EVQLVESGGGLVQPGGSLRLSCAASGFNISRFYIHWVRQAPGKGLEWVGGISPYDGFTDYADSVKGRFTISADTSKNTAYLQMNSLRAEDTAVYYCARGSWSWPAGYGYYQDYWGQGTLVTVSS
VL: not shown
B5: SRP1848-B06 (antibody, V domains shown)
VH: EVQLVESGGGLVQPGGSLRLSCAASGFNISNYYIHWVRQAPGKGLEWVGGITPIDGYTDYADSVKGRFTISADTSKNTAYLQMNSLRAEDTAVYYCARGFWSWPSGYGYYQDYWGQGTLVTVSS
VL: not shown
B6: SRP1848-A07 (antibody, V domains shown)
VH: EVQLVESGGGLVQPGGSLRLSCAASGFNIGYHSIHWVRQAPGKGLEWVGEIFPVDGTTDYADSVKGRFTISADTSKNTAYLHMNSLRAEDTAVYYCARGFWAWRSGYGYYLDYWGQGTLVTVSS
VL: not shown
B7: SRP1848-A08 (antibody, V domains shown)
VH: EVQLVESGGGLVQPGGSLRLSCAASGSNIRKHSIHWVRQAPGKGLEWVGSIYPNDGTTDYADSVKGRFTISADTSKNTAYLQMNSLRAEDTAVYYCARGSWFWRAGYGYYLDYWGQGTLVTVSS
VL: not shown
B8: SRP1848-B01 (antibody, V domains shown)
VH: EVQLVESGGGLVQPGGSLRLSCAASGFNIRNYSIHWVRQAPGKGLEWVGEIYPVDGITDYADSVKGRFTISADTSKNTAYLQMNSLRAEDTAVYYCARGFWSWPSGYSYFLDYWGQGTLVTVSS
VL: not shown
B9: SRP1848-A04 (antibody, V domains shown)
VH: EVQLVESGGGLVQPGGSLRLSCAASGFNIDQSSIHWVRQAPGKGLEWVGVIYPVDGTTDYADSVKGRFTISADTSKNTAYLQMNSLRAEDTAVYYCARGAWSWRSGYGYYIDYWGQGTLVTVSS
VL: not shown
B10: SRP1848-A09 (antibody, V domains shown)
VH: EVQLVESGGGLVQPGGSLRLSCAASGFNIRKQSIHWVRQAPGKGLEWVGSIFPNDGTTDYADSVKGRFTISADTSKNTAYLQVNSLRAEDTAVYYCARGSWFWRSGYGYFLEYWGQGTLVTVSS
VL: not shown
B11: SRP1848-B04 (antibody, V domains shown)
VH: EVQLVESGGGLVQPGGSLRLSCAASSFNISNHSIHWVRQAPGKGLEWVGEIYPVDGITDYADSVKGRFTISADTSKNTAYLQMNSLRAEDTAVYYCARGRYSWRAGYSYYLDYWGQGTLVTVSS
VL: not shown
B12: SRP1848-B03 (antibody, V domains shown)
VH: EVQLVESGGGLVQPGGSLRLSCAASGFNISMKYIHWVRQAPGKGLEWVGGITPIDGMTDYADSVKGRFTISADTSKNTAYLQMNSLRAEDTAVYYCARGSWSWPSGYSYYLDYWGQGTLVTVSS
VL: not shown
B13: SRP1848-B05 (antibody, V domains shown)
VH: EVQLVESGGGLVQPGGSLRLSCAASGFNISNYYIHWVRQAPGKGLEWVGGISPIDGYTDYADSMKGRFTISADTSKNTAYLQMSSLRAEDTAVYYCARGSWFWQSGYGYYLDYWGQGTLVTVSS
VL: not shown
B14: SRP1848-A10 (antibody, V domains shown)
VH: EVQLVESGGGLVQPGGSLRLSCAASGFNIRKYSIHWARQAPGKGLEWVGDIFPIDDITDYADSVKGRFTISADTSKNTAYLQMNSLRAEDTAVYYCARGSWSWPSGHSYYLDYWGQGTLVTVSS
VL: not shown
B15: SRP1848-A01 (antibody, V domains shown)
VH: EVQLVESGGGLVQPGGSLRLSCAASGFNITRYSIHWVRQAPGKGLEWVAGILPESGGTSYADSVKGRFTISADTSKNTAYLQMNSLRAEDTAVYYCARHIYPWDWFSNYVLDYWGQGTLVTVSS
VL: not shown

These results are taken from patent publication US20220047716A1 (SUTRO BIOPHARMA, published 2022).

The target in this assay is human folate receptor alpha (hFOLR1) (human, UniProt P15328 25-234). In words: cell-based or functional assay.
Sequence of human folate receptor alpha (hFOLR1) (P15328 25-234 limits assumed): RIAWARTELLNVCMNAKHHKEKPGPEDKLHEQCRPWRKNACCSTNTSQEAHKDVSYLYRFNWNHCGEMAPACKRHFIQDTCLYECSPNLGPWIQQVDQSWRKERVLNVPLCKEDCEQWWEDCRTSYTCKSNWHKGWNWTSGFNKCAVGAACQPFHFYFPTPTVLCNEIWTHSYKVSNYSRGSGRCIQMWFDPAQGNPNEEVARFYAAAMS
Consider B1, for which the “Igrov 2° antibody cell killing EC50” value is 0.015 nM, the “Igrov 2° antibody cell killing Span” value came to 73%, the “KB 2° antibody cell killing EC50” value was found to be 0.096 nM and the “KB 2° antibody cell killing Span” value is 93%.

On to B2, for which the “Igrov 2° antibody cell killing EC50” value worked out at 0.027 nM, the “Igrov 2° antibody cell killing Span” value is 74%, the “KB 2° antibody cell killing EC50” value is 0.073 nM and the “KB 2° antibody cell killing Span” value came out at 97%.

Take B3: the “Igrov 2° antibody cell killing Span” value is 72%, the “KB 2° antibody cell killing EC50” value was determined as 0.046 nM and the “KB 2° antibody cell killing Span” value amounted to 93%.

Turning to B4, the “Igrov 2° antibody cell killing EC50” value is 0.038 nM, the “Igrov 2° antibody cell killing Span” value worked out at 73%, the “KB 2° antibody cell killing EC50” value is 0.079 nM and the “KB 2° antibody cell killing Span” value was found to be 96%.

Regarding B5, the “Igrov 2° antibody cell killing EC50” value came out at 0.022 nM, the “Igrov 2° antibody cell killing Span” value is 72%, the “KB 2° antibody cell killing EC50” value worked out at 0.058 nM and the “KB 2° antibody cell killing Span” value was 95%.

B6: the “Igrov 2° antibody cell killing EC50” value was found to be 0.029 nM, the “Igrov 2° antibody cell killing Span” value was 68%, the “KB 2° antibody cell killing EC50” value worked out at 0.062 nM and the “KB 2° antibody cell killing Span” value was 95%.

Take B7: the “Igrov 2° antibody cell killing EC50” value worked out at 0.013 nM, the “Igrov 2° antibody cell killing Span” value is 65%, the “KB 2° antibody cell killing EC50” value stood at 0.039 nM and the “KB 2° antibody cell killing Span” value was found to be 93%.

In the case of B8, the “Igrov 2° antibody cell killing EC50” value was determined as 0.031 nM, the “Igrov 2° antibody cell killing Span” value came to 82%, the “KB 2° antibody cell killing EC50” value came to 0.064 nM and the “KB 2° antibody cell killing Span” value amounted to 95%.

Take B9: the “Igrov 2° antibody cell killing EC50” value came out at 0.015 nM, the “Igrov 2° antibody cell killing Span” value is 64%, the “KB 2° antibody cell killing EC50” value turned out to be 0.052 nM and the “KB 2° antibody cell killing Span” value is 92%.

In the case of B10, the “Igrov 2° antibody cell killing EC50” value was 0.026 nM, the “Igrov 2° antibody cell killing Span” value worked out at 71% and the “KB 2° antibody cell killing Span” value stood at 93%.

On to B11, for which the “Igrov 2° antibody cell killing EC50” value was found to be 0.018 nM, the “Igrov 2° antibody cell killing Span” value amounted to 70%, the “KB 2° antibody cell killing EC50” value worked out at 0.035 nM and the “KB 2° antibody cell killing Span” value was found to be 94%.

On to B12, for which the “Igrov 2° antibody cell killing EC50” value turned out to be 0.028 nM, the “Igrov 2° antibody cell killing Span” value was 66%, the “KB 2° antibody cell killing EC50” value is 0.05 nM and the “KB 2° antibody cell killing Span” value was 94%.

B13: the “Igrov 2° antibody cell killing EC50” value was 0.04 nM, the “Igrov 2° antibody cell killing Span” value was determined as 72%, the “KB 2° antibody cell killing EC50” value came out at 0.065 nM and the “KB 2° antibody cell killing Span” value came to 94%.

Consider B14, for which the “Igrov 2° antibody cell killing EC50” value stood at 0.027 nM, the “Igrov 2° antibody cell killing Span” value turned out to be 75%, the “KB 2° antibody cell killing EC50” value is 0.033 nM and the “KB 2° antibody cell killing Span” value came out at 96%.

B15: the “Igrov 2° antibody cell killing EC50” value turned out to be 0.015 nM, the “Igrov 2° antibody cell killing Span” value was determined as 71%, the “KB 2° antibody cell killing EC50” value was 0.064 nM and the “KB 2° antibody cell killing Span” value is 94%.
